Positions count from the first letter of the chain named.
B1: M4A02 (antibody, V domains shown)
VH: EVQLVESGGGLVEPGGSLRLSCAASGFMFTSYAMHWVRQAPGRGLEWVSSITGGGNFVEYAVSVQGRFTVSRDNNQNSLYLQMNSLRVEDTAMYYCAREDYNSGANLHWFDPWGQGTLVTVSS
VL: QSVLTQPPSVSGAPGQRVTISCTGSSSNIGAFFDVHWYSHLPGTAPKLLIYGDRNRPSGVPERFSGSKSGASASLTITGLRAEDEADYYCQSYDRGLSAWVFGGGTRVTVL
B2: M4A05 (antibody, V domains shown)
VH: EVQLVESGGGLVKPGGSLRLSCAAFGFSLSGYGMNWVRQAPGKGLQWVSSITASSSYITYRDSLRGRFTISRDNAQNSLYLDMTALRVEDTAVYYCATNGKLPPYFDHWGQGVLVVVSS
VL: QSVLTQPPSVSGAPGQRVTISCTGSGSNIGAGYDVHWYQQLPGTAPKLLIYDNNHRASGVPDRVSASWSGTSASLAITGLQAEDEADYYCQSYDRNLEGVVFGGGTKLTVL
B3: M3A06 (antibody, V domains shown)
VH: EVQLVESGGGLVKPGGSLRLSCAASGFTLTSYSMNWVRQAPGKGLEWVSSISSSSSYIHYADSVKGRFTISRDNAKNSVYLQMNSLRAEDTAAYYCARVARELDPFDMWGQGTVVTVAS
VL: QSVLTQPPSVSGAPGQRVTISCTGSSSNIGAGYDVHWYQQLPGTAPKLLVYANNNRPSGVPDRFSGSKSGTSASLAITGLQADDEADYYCQSYDRSLSGSVFGGGTKLTVL
B4: M3B02 (antibody, V domains shown)
VH: EVQLVESGGGLVKPGGSLRISCVASEFTLSGYAMNWVRQVPGKGLEWVSSISSSSSYINYADFVKGRFTISRDNAKNSVFLQLNSLRPEDTALYYCVRERPTAILPYLDLWGRGTLVTVSS
VL: B3 VL with H36Q, L41S, V50I, Y51H, A52G, D83E, S100W
B5: M4A11 (antibody, V domains shown)
VH: QVQLVQSGSEVKRPGASVRVSCTASGYTFSNYGVSWMRQAPGHGLEWMGWISTHNQNVRYSQNFQGRVTVTTDTSTSTAYMDLRGLKPDDTAVYFCARMIPVGTTYTPYWTGWTPGGMDIWGQGTTVIVSS
VL: QSVLTQPPSASGTPGQRVIMSCSGTTSNIGRNFVYWYQQLPKEAPTLLIYGNDQRPAGVPDRFSGSTSGTSASLAISGLRSGDEADYYCATWDDSVNGPVFGGGTKLTVL

Each binder was assayed on F protein of RSV B/Washington virus (respiratory syncytial virus B, Washington strain) (assay: cell-based or functional assay).

| Binder | PRNT IC50 |
| --- | --- |
| B1 | 0.0364 µg/mL |
| B2 | 0.0295 µg/mL |
| B3 | 0.0274 µg/mL |
| B4 | 0.0153 µg/mL |

These binders were tested on F protein of hMPV A virus (human metapneumovirus subtype A) (assay: cell-based or functional assay).

| Binder | PRNT IC50 |
| --- | --- |
| B1 | 0.186 µg/mL |
| B5 | > 10 µg/mL |
| B2 | 0.0569 µg/mL |
| B3 | 0.31 µg/mL |
| B4 | 1.06 µg/mL |

These binders were tested on F protein of hMPV B virus (human metapneumovirus subtype B) (assay: cell-based or functional assay).

| Binder | PRNT IC50 |
| --- | --- |
| B1 | 0.0927 µg/mL |
| B5 | > 10 µg/mL |
| B2 | 0.0425 µg/mL |
| B3 | 0.416 µg/mL |
| B4 | 1.54 µg/mL |

Reference: patent publication US20240327502A1
